Test results taken from patent US20060177894A1.

Legend:
[1] = molecular target: rat lutropin receptor (LHR) (rat) (UniProt P16235); assay: cell-based or functional assay
[2] = molecular target: rat lutropin receptor (LHR) (rat) (UniProt P16235); assay: inhibition of 125I-hCG binding to CHO cells with rat LHR; from IC50; acid-stable hCGβ-S138C analog
[3] = molecular target: rat lutropin receptor (LHR) (rat) (UniProt P16235); assay: receptor binding assay

rat lutropin receptor (LHR) (rat), sequence (P16235 27-700): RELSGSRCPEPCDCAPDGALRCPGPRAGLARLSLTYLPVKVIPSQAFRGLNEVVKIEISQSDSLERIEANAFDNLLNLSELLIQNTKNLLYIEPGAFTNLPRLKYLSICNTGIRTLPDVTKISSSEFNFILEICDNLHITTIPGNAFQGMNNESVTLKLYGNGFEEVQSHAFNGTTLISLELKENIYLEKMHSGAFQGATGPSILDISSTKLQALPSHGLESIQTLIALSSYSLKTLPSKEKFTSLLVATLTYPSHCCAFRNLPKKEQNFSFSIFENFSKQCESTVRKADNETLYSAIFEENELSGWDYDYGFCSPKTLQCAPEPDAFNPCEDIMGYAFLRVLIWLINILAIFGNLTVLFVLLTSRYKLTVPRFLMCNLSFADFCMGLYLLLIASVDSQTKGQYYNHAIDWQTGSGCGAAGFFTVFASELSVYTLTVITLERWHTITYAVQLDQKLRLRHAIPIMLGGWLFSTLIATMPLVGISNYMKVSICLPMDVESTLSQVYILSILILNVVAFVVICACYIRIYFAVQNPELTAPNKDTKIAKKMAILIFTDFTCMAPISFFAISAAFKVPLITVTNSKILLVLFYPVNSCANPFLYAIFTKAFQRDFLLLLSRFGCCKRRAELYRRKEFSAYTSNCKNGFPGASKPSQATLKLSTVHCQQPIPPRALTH

αT86C + hCGβ-S138C (from UniProt P01215 25-116; P0DN86 21-165) (ligand)
Signal transduction potency (cAMP accumulation), acid-stable analog [1]: 0.18 % of hCG | Receptor-Binding potency (percent hCG) [2]: 2.2 % of hCG

analog containing the entire carboxyterminal residues of the hCG β-subunit attached to the α-subunit (from UniProt P01215 25-116) (ligand)
signaling assays [1]: 50 % of hCG | activity relative to hCG [3]: > 50 % of hCG

αY88C + hCGβ-S138C (from UniProt P01215 25-116; P0DN86 21-165) (ligand)
Signal transduction potency (cAMP accumulation), acid-stable analog [1]: 0.12 % of hCG | Receptor-Binding potency (percent hCG) [2]: 0.05 % of hCG
